{"source": "patent US7579445", "key": {"[1]": {"target": "surface of Line-1-PSA cells (PSA-transfected Balb/cByJ lung carcinoma cell line)", "experiment": "FACS on Line 1-PSA cells; negative control 4"}, "[2]": {"target": "surface of Line-1-PSA cells (PSA-transfected Balb/cByJ lung carcinoma cell line)", "experiment": "FACS on Line 1-PSA cells; negative control 7"}, "[3]": {"target": "surface of P815-PSA cells (PSA-transfected DBA/2 mastocytoma cell line)", "experiment": "FACS on P815-PSA cells; negative control 3"}, "[4]": {"target": "surface of P815-PSA cells (PSA-transfected DBA/2 mastocytoma cell line)", "experiment": "FACS on P815-PSA cells; negative control 5"}}, "data": [{"substance": "MOPC-21 (antibody)", "values": [{"measurement": "mean fluorescence", "setting": "[1]", "result": 5}, {"measurement": "mean fluorescence", "setting": "[2]", "result": 8}, {"measurement": "mean fluorescence", "setting": "[3]", "result": 11}, {"measurement": "mean fluorescence", "setting": "[4]", "result": 37}]}]}
